The values below are quoted from earlier work in publication PMC11061240.

Where two headings read alike, the source gives them in different places.

Series [1] concerns the target FGL1 (UniProt Q08830).
For series [2], the target named is α-synuclein preformed fibrils (UniProt P37840).
Series [3] has as its target FGL1 (UniProt Q08830). Briefly: BLI. On the technique in general: In BLI a coated tip is dipped into the sample, and binding shifts an interference pattern.

UniProt Q08830, sequence (Q08830 23-312): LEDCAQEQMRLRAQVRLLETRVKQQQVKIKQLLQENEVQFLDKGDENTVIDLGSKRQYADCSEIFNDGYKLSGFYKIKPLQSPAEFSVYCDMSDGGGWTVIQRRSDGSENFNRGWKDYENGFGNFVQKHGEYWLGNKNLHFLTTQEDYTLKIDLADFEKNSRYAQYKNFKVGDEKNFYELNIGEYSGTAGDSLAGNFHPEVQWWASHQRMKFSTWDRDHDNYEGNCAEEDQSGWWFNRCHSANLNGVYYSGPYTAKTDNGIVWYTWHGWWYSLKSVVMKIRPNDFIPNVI

As usually defined, the Kd is the equilibrium constant for the complex coming apart. For LAG3 (from UniProt P18627), the values for the Kd (with FGL1 [1]; in series [2]) were 7000 nM and 80 nM, respectively. LAG3 ECD (from UniProt Q61790): the Kd in the series with FGL1 [3] was 1.5 nM.
